# From patent publication US20050214302A1, “Use of emmprin antagonists for the treatment of diseases associated with excessive angiogenesis” (priority 2004, published 2005)
# Legend:
# [1] = test system: NHLF cells; assay: Recombinant EMMPRIN stimulation of MMP-1 production by NHLF cells; assay type: cell-based, human; details: same treatment (20 μg/ml EMMPRIN)
# [2] = test system: HMVEC-L cells; assay: Recombinant EMMPRIN stimulation of MMP-1 production by HMVEC-L cells (MMP-1 activity kit); assay type: cell-based, human
# Method: HMVEC-L cells were obtained from Clonetics, Walkersville, Md. (Cat# CC-2527, Lot# 8F1528). HMVEC-L cells were cultured under conditions recommended by the supplier. Briefly, cells were cultured in Endothelium Cell Growth Medium MV (EGM-2 MV, Clonetics, Cat#CC-3202) containing human epithelial growth factor (hEGF), hydrocortisone, human basic fibroblast growth factor (hFGF-B), vascular endothelial growth factor (VEGF), human insulin-like growth factor-1 (hIGF-1), ascorbic acid, gentamicin, 5% FBS, at 37° C., 5% CO2.
# Early passage cells (less than passage 3) were trypsinized and washed with RPMI-1640 once. Cells were resuspended in Dilution Medium (DM−Fibroblast Basic Medium+2% FBS) at a concentration of 5×100,000 cells/ml. 100 μl of the cell suspension containing 50,000 cells was added into each well in a 96 well cell culture plate. […]
# Quantitative detection of MMP-1 activity in the conditioned medium was carried out using Human MMP-1 Activity Kit (R&D Systems, Minneapolis, Minn.) (Cat#F1M00). […] MMP substrate added into each well was cleaved by active MMP-1 and the resulting fluorescence was determined using SpectraFluor Plus Plate Reader (TECAN, Zurich, Switzerland) (Cat# F129005, Ser# 94747) with the following parameters: excitation wavelength at 320 nm and emission wavelength at 405 nm.
# [3] = test system: angiogenesis in Matrigel plugs; assay: Matrigel plug angiogenesis assay in vivo; details: suboptimal doses of FGF or VEGF, mice, expected
# Text: The role of EMMPRIN in angiogenesis will be directly investigated in vivo using Matrigel plug assays. Matrigel is a solubilized basement membrane preparation extracted from the Engel-Holm-Swarm (EHS) mouse sarcoma, a tumor rich in extracellular matrix proteins. The major component is laminin, but Matrigel also contains trace amounts of fibroblast growth factor, TGF-beta, tissue plasminogen activator, and other growth factors that occur naturally in the EHS tumor. Matrigel is the basis for several types of tumor cell invasion assays and provides the necessary substrate for the study of angiogenesis. Matrigel forms a soft gel plug when injected subcutaneously into mice or rats and supports an intense vascular response when supplemented with angiogenic factors.
# Matrigel plugs containing suboptimal doses of angiogenic growth factors, such as basic fibroblast growth factor (FGF), or vascular endothelial cell growth factor (VEGF) can be implanted into mice to induce angiogenesis in vivo. Some of these plugs are supplemented with various doses of recombinant EMMPRIN.
molecule,measurement,setting,value
"recombinant EMMPRIN: recombinant protein corresponding to the extracellular domain of human EMMPRIN, produced in NSO cells (R&D Systems) (protein, UniProt P35613 138-323, looked up, extracellular domain) extracellular domain: EPGTVFTTVEDLGSKILLTCSLNDSATEVTGHRWLKGGVVLKEDALPGQKTEFKVDSDDQWGEYSCVFLPEPMGTANIQLHGPPRVKAVKSSEHINEGETAMLVCKSESVPPVTDWAWYKITDSEDKALMNGSESRFFVSSSQGRSELHIENLNMEADPGQYRCNGTSSKGSDQAIITLRVRSHLA",MMP-1 produced by NHLF cells relative to HMVEC-L,[1],only half of that amount
same,Stimulation of MMP-1 production in endothelial cells (result in words),"[2]; 0.08-20 μg/ml EMMPRIN, 1 day and 3 days, FIG. 2",dose-dependently stimulated MMP-1 production
same,MMP-1 produced by HMVEC-L cells,[2]; treated with 20 μg/ml EMMPRIN,approximately 40 ng/ml
same,Angiogenesis in Matrigel plugs supplemented with recombinant EMMPRIN,[3],increase in angiogenesis
